Key:
[1] = biological target: recombinant gB (gB1-705-strep), ectodomain of wild type gB of HSV-2 strain 333 (HSV-2 strain 333, UniProt P06763 23-727)
[2] = biological target: envelope glycoprotein B (gB) of HSV-1 strain KOS (HSV-1 strain KOS, UniProt P06437 31-904); assay: cell-based or functional assay
[3] = biological target: envelope glycoprotein B (gB) of HSV-2 strain MS (HSV-2 strain MS); assay: cell-based or functional assay

| Binder | Kd [1] [nM] | 50% plaque number-reducing activity [2] [nM] | 50% plaque number-reducing activity [3] [nM] |
| --- | --- | --- | --- |
| antibody D48 human-guinea pig chimeric IgG2κ (antibody, V domains shown) VH: EVQLVETGGGVVRPGRSLRLSCTTSGFSFSGSAMHWVRQAPGKGLEWVAVISHDGNIIQYHDSVKGRFTISRDNSKNVLLLQMNSLRVDDTAMYYCARDVWLLPATISYAFDFWGQGTMVTVSS VL: VIWMTQSPPSLSASIGDTVTITCRASQGISNSIAWYQRRPGKAPELLVYAAYRLQSGVPSRLSGSGSGAEYTLTIKNMQPEDFATYYCQQYYDNPLTFGGGTKVEIK | 0.76 | 0.94 | 7.5 |
| antibody D48 human-murine chimeric IgG2a (antibody, V domains shown, not shown: a dimerising Fc or GST) VH: EVQLVETGGGVVRPGRSLRLSCTTSGFSFSGSAMHWVRQAPGKGLEWVAVISHDGNIIQYHDSVKGRFTISRDNSKNVLLLQMNSLRVDDTAMYYCARDVWLLPATISYAFDFWGQGTMVTVSS VL: VIWMTQSPPSLSASIGDTVTITCRASQGISNSIAWYQRRPGKAPELLVYAAYRLQSGVPSRLSGSGSGAEYTLTIKNMQPEDFATYYCQQYYDNPLTFGGGTKVEIK |  | 1.9 | 1.6 |
| antibody D48 Fab (Fab, V domains shown, not shown: small tags and cut ends; a dimerising Fc or GST) VH: EVQLVETGGGVVRPGRSLRLSCTTSGFSFSGSAMHWVRQAPGKGLEWVAVISHDGNIIQYHDSVKGRFTISRDNSKNVLLLQMNSLRVDDTAMYYCARDVWLLPATISYAFDFWGQGTMVTVSS VL: VIWMTQSPPSLSASIGDTVTITCRASQGISNSIAWYQRRPGKAPELLVYAAYRLQSGVPSRLSGSGSGAEYTLTIKNMQPEDFATYYCQQYYDNPLTFGGGTKVEIK |  | 2.7 | 4.4 |
| antibody D48 scFv-hFc (Fc fusion, not shown: a dimerising Fc or GST) scFv: EVQLVETGGGVVRPGRSLRLSCTTSGFSFSGSAMHWVRQAPGKGLEWVAVISHDGNIIQYHDSVKGRFTISRDNSKNVLLLQMNSLRVDDTAMYYCARDVWLLPATISYAFDFWGQGTMVTVSSASTGGGGSGGGGSGGGGSVIWMTQSPPSLSASIGDTVTITCRASQGISNSIAWYQRRPGKAPELLVYAAYRLQSGVPSRLSGSGSGAEYTLTIKNMQPEDFATYYCQQYYDNPLTFGGGTKVEIK |  | 1 | 0.12 |

From patent US20200239549A1 (KM BIOLOGICS, published 2020)
